One block for each binder: values may come before it.
How the values were obtained:
Assay in all cases: cell-based or functional assay
glucagon receptor [1] = biological target: T1, glucagon receptor (UniProt P47871 26-477, limits assumed)
glucagon receptor [2] = biological target: T1, glucagon receptor; remark: listed apart in the source
GLP-1 receptor = GLP-1 receptor (UniProt P43220 24-463, limits assumed)

T1 sequence (P47871 26-477 limits assumed): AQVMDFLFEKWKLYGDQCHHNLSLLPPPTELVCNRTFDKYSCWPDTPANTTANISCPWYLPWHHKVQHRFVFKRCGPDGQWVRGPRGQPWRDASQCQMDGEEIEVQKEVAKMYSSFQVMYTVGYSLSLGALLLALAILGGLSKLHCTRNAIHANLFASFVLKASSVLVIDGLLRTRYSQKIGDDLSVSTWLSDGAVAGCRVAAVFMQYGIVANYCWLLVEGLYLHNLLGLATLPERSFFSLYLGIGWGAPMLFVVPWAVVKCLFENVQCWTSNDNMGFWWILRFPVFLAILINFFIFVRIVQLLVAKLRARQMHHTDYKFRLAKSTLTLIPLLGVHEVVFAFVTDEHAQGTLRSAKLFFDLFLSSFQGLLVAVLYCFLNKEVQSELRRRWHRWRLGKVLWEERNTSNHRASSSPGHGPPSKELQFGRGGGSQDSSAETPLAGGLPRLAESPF

Binder: HSQGTFTSDYSKYLDSRRAQDFVQWLMDE [glucagon analog D28, E29]
Observed EC50 (cAMP induction), Test 3 (glucagon receptor [1]): 30 pM

Binder: HSQGTFTSDYSKYLESRRAQDFVQWLMDT [glucagon analog D28, E15]
Observed EC50 (cAMP induction), Test 3 (glucagon receptor [1]): 150 pM

Binder: HSQGTFTSDYSRYLDSRRAQDFVQWLMNK [Glucagon R12 K29]
cAMP Induction, EC50 (luciferase reporter) (glucagon receptor [2]): 810 pM | cAMP Induction, EC50 (luciferase reporter) (GLP-1 receptor): 410 pM

Now from value to binder:

Observed EC50 (cAMP induction), Test 2 (glucagon receptor [1]): 40 pM
Binder: HSQGTFTSDYSKYLDSRRAQDFVQWLMNTE [glucagon analog E30]

Observed EC50 (cAMP induction), Test 1 (glucagon receptor [1]): 890 pM
Binder: HSQGTFTSDYSKYLDSRRAQDFVQWLMNKK [glucagon analog K29, K30]

Observed EC50 (cAMP induction), Test 2 (glucagon receptor [1]): 120 pM
Binder: HSQGTFTSDYSKYLDSRRAQDFVQWLMNTKK [glucagon analog K30, K31]

Observed EC50 (cAMP induction), Test 3 (glucagon receptor [1]): 50 pM
Binder: HSQGTFTSDYSKYLDSRRAQDFVQWLMDTE [glucagon analog D28, E30]

— patent publication US20100190699A1 (INDIANA UNIVERSITY RESEARCH AND TECHNOLOGY, published 2010)
